Measured values: patent EP2544694B1 (Novelmed Therapeutics, Inc., dated 2018)

Biological target: human properdin (human, UniProt P27918 28-469)
Test: cell-based or functional assay

Chain of human properdin (P27918 28-469 limits assumed): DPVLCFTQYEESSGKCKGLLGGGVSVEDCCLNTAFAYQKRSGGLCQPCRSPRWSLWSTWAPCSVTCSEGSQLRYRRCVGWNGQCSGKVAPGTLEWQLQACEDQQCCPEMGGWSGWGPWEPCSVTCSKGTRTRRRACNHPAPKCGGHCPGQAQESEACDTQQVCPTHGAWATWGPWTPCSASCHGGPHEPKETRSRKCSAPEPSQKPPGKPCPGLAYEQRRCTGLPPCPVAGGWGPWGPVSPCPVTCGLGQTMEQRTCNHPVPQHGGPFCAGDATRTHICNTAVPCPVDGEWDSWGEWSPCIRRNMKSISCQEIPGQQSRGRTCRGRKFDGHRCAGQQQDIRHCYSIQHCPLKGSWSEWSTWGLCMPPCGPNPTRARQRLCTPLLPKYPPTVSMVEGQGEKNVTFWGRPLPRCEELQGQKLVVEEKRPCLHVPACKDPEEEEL

B1: anti-properdin monoclonal antibody IgG (14G11) (antibody, V domains shown)
VH: QVTLKESGPGILQPSQTLSLTCSFSGFSLSTSGMGVGWIRQPSGKGLEWLAHIWWDDVKSYNPALKSRLTISKDTSSSQVFLRIASVDTADTATYYCARIGDGYYSFDYWGQGTTLTVSS
VL: DIVMTQSHKFMSTSVGDRVSISCKASQDVSDAVAWFQQKPGQSPKLLIYSPSYRYTGVPDRFTGSGSGTDFTFTISSVQAEDLAVYYCQQHYSTPWTFGGGTKLEIKR
Q: How did the “IC50 of inhibition of AP dependent hemolysis of rRBC in 10% normal human serum” value turn out when B1 was run?
A: The value was 10 nM.
